# Assay results taken from paper PMC9352680, “A comprehensive thermodynamic model for RNA binding by the Saccharomyces cerevisiae Pumilio protein PUF4”.
# Positions count from the first letter of the chain named. Names and notes keep the numbering of the source.
# T1: PUF4 RNA-binding domain (Saccharomyces cerevisiae, UniProt P25339 537-888)
# T1 sequence: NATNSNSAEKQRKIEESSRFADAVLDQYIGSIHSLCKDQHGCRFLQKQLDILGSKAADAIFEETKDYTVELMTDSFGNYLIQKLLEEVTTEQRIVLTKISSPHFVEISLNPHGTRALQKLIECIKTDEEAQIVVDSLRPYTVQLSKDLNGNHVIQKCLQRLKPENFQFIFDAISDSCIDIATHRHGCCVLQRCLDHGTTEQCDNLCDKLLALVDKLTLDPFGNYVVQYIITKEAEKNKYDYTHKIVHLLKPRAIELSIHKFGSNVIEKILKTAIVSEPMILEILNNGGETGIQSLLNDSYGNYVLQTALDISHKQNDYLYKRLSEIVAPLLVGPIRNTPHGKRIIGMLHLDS
# B1: Id_ii_S2_P4E.2_K4.1_C4.2_[C-2T]_[T-1C]_H4.1_A4.1_F4.1_T4.2_[G10C]_[T11C] (ssRNA)
# RNA: UUUGAUUAAUAUGAUAUCGUUCUUUCUUCUGUAUAUUACCUUCUUUCUCGAUAUCAUAUUAAUCUUU
# B2: Id_ii_S2_P4E.2_K4.1_C4.2_[T-1G]_H4.1_A4.1_F4.1_T4.2_[G10A]_[T11G] (ssRNA)
# RNA: B1 RNA with U28C, C29G, C39A, C40G
# B3: Id_ii_S2_P4E.2_K4.1_C4.2_[C-2A]_[T-1C]_H4.1_A4.1_F4.1_T4.2_[G10A]_[T11A] (ssRNA)
# RNA: B1 RNA with U28A, C39A, C40A
# B4: Id_ii_S2_P4E.2_K4.1_C4.2_[C-2T]_H4.1_A4.1_F4.1_T4.2_[G10T]_[T11G] (ssRNA)
# RNA: B1 RNA with C29U, C39U, C40G
# B5: Id_ii_S2_P4E.2_K4.1_C4.2_[C-2A]_[T-1C]_H4.1_A4.1_F4.1_T4.2_[G10T]_[T11G] (ssRNA)
# RNA: B1 RNA with U28A, C39U, C40G
# B6: Id_ii_S2_P4E.2_K4.1_C4.2_[C-2A]_[T-1G]_H4.1_A4.1_F4.1_T4.2_[G10T]_[T11C] (ssRNA)
# RNA: B1 RNA with U28A, C29G, C39U
# B7: Id_ii_S2_P4E.2_K4.1_C4.2_[C-2T]_[T-1A]_H4.1_A4.1_F4.1_T4.2_[G10C]_[T11C] (ssRNA)
# RNA: B1 RNA with C29A
# B8: Id_ii_S2_P4E.2_K4.1_C4.2_[C-2A]_[T-1C]_H4.1_A4.1_F4.1_T4.2_[G10C] (ssRNA)
# RNA: B1 RNA with U28A, C40U
# B9: Id_ii_S2_P4E.2_K4.1_C4.2_[C-2T]_[T-1A]_H4.1_A4.1_F4.1_T4.2_[G10A]_[T11A] (ssRNA)
# RNA: B1 RNA with C29A, C39A, C40A
# B10: Id_ii_S2_P4E.2_K4.1_C4.2_[C-2A]_H4.1_A4.1_F4.1_T4.2_[G10A] (ssRNA)
# RNA: B1 RNA with U28A, C29U, C39A, C40U
# B11: Id_ii_S2_P4E.2_K4.1_C4.2_[C-2A]_[T-1A]_H4.1_A4.1_F4.1_T4.2_[G10A] (ssRNA)
# RNA: B1 RNA with U28A, C29A, C39A, C40U
# B12: Id_ii_S2_P4E.2_K4.1_C4.2_[C-2T]_[T-1C]_H4.1_A4.1_F4.1_T4.2_[G10C] (ssRNA)
# RNA: B1 RNA with C40U
# B13: Id_ii_S2_P4E.2_K4.1_C4.2_[C-2T]_H4.1_A4.1_F4.1_T4.2_[G10C]_[T11C] (ssRNA)
# RNA: B1 RNA with C29U
# B14: Id_ii_S2_P4E.2_K4.1_C4.2_[C-2T]_H4.1_A4.1_F4.1_T4.2 (ssRNA)
# RNA: B1 RNA with C29U, C39G, C40U
# B15: Id_ii_S2_P4E.2_K4.1_C4.2_[C-2A]_H4.1_A4.1_F4.1_T4.2_[G10C] (ssRNA)
# RNA: B1 RNA with U28A, C29U, C40U
# B16: Id_ii_S2_P4E.2_K4.1_C4.2_[C-2A]_[T-1C]_H4.1_A4.1_F4.1_T4.2_[G10T]_[T11A] (ssRNA)
# RNA: B1 RNA with U28A, C39U, C40A
# B17: Id_ii_S2_P4E.2_K4.1_C4.2_[C-2A]_[T-1C]_H4.1_A4.1_F4.1_T4.2_[G10T] (ssRNA)
# RNA: B1 RNA with U28A, C39U, C40U
# B18: Id_ii_S2_P4E.2_K4.1_C4.2_[C-2T]_H4.1_A4.1_F4.1_T4.2_[G10C] (ssRNA)
# RNA: B1 RNA with C29U, C40U
# B19: Id_ii_S2_P4E.2_K4.1_C4.2_[C-2T]_[T-1A]_H4.1_A4.1_F4.1_T4.2_[G10T]_[T11C] (ssRNA)
# RNA: B1 RNA with C29A, C39U
# B20: Id_ii_S2_P4E.2_K4.1_C4.2_[C-2A]_[T-1A]_H4.1_A4.1_F4.1_T4.2_[G10A]_[T11C] (ssRNA)
# RNA: B1 RNA with U28A, C29A, C39A
# B21: Id_ii_S2_P4E.2_K4.1_C4.2_[C-2T]_H4.1_A4.1_F4.1_T4.2_[T11C] (ssRNA)
# RNA: B1 RNA with C29U, C39G
# B22: Id_ii_S2_P4E.2_K4.1_C4.2_[C-2A]_[T-1G]_H4.1_A4.1_F4.1_T4.2_[G10T]_[T11G] (ssRNA)
# RNA: B1 RNA with U28A, C29G, C39U, C40G
# B23: Id_ii_S2_P4E.2_K4.1_C4.2_[C-2T]_H4.1_A4.1_F4.1_T4.2_[G10T] (ssRNA)
# RNA: B1 RNA with C29U, C39U, C40U
# B24: Id_ii_S2_P4E.2_K4.1_C4.2_[C-2T]_[T-1A]_H4.1_A4.1_F4.1_T4.2_[T11C] (ssRNA)
# RNA: B1 RNA with C29A, C39G
# B25: Id_ii_S2_P4E.2_K4.1_C4.2_[C-2A]_H4.1_A4.1_F4.1_T4.2_[G10T]_[T11G] (ssRNA)
# RNA: B1 RNA with U28A, C29U, C39U, C40G
# B26: Id_ii_S2_P4E.2_K4.1_C4.2_[C-2A]_[T-1A]_H4.1_A4.1_F4.1_T4.2_[G10A]_[T11G] (ssRNA)
# RNA: B1 RNA with U28A, C29A, C39A, C40G
# B27: Id_ii_S2_P4E.2_K4.1_C4.2_[C-2A]_[T-1C]_H4.1_A4.1_F4.1_T4.2_[G10A]_[T11C] (ssRNA)
# RNA: B1 RNA with U28A, C39A
# B28: Id_ii_S2_P4E.2_K4.1_C4.2_[C-2T]_H4.1_A4.1_F4.1_T4.2_[G10T]_[T11A] (ssRNA)
# RNA: B1 RNA with C29U, C39U, C40A
# B29: Id_ii_S2_P4E.2_K4.1_C4.2_[C-2A]_[T-1A]_H4.1_A4.1_F4.1_T4.2_[G10C]_[T11C] (ssRNA)
# RNA: B1 RNA with U28A, C29A
# B30: Id_ii_S2_P4E.2_K4.1_C4.2_[C-2T]_[T-1A]_H4.1_A4.1_F4.1_T4.2_[G10T] (ssRNA)
# RNA: B1 RNA with C29A, C39U, C40U
# B31: Id_ii_S2_P4E.2_K4.1_C4.2_[T-1G]_H4.1_A4.1_F4.1_T4.2_[G10T] (ssRNA)
# RNA: B1 RNA with U28C, C29G, C39U, C40U
# B32: Id_ii_S2_P4E.2_K4.1_C4.2_[C-2T]_[T-1C]_H4.1_A4.1_F4.1_T4.2 (ssRNA)
# RNA: B1 RNA with C39G, C40U
# B33: Id_ii_S2_P4E.2_K4.1_C4.2_[C-2T]_[T-1C]_H4.1_A4.1_F4.1_T4.2_[G10A]_[T11A] (ssRNA)
# RNA: B1 RNA with C39A, C40A
# B34: Id_ii_S2_P4E.2_K4.1_C4.2_[C-2A]_[T-1A]_H4.1_A4.1_F4.1_T4.2_[G10A]_[T11A] (ssRNA)
# RNA: B1 RNA with U28A, C29A, C39A, C40A
# B35: Id_ii_S2_P4E.2_K4.1_C4.2_[C-2A]_H4.1_A4.1_F4.1_T4.2_[G10A]_[T11A] (ssRNA)
# RNA: B1 RNA with U28A, C29U, C39A, C40A
# B36: Id_ii_S2_P4E.2_K4.1_C4.2_[C-2A]_H4.1_A4.1_F4.1_T4.2_[G10T]_[T11C] (ssRNA)
# RNA: B1 RNA with U28A, C29U, C39U
# B37: Id_ii_S2_P4E.2_K4.1_C4.2_[C-2T]_[T-1C]_H4.1_A4.1_F4.1_T4.2_[G10A]_[T11C] (ssRNA)
# RNA: B1 RNA with C39A
# B38: Id_ii_S2_P4E.2_K4.1_C4.2_[C-2T]_[T-1A]_H4.1_A4.1_F4.1_T4.2 (ssRNA)
# RNA: B1 RNA with C29A, C39G, C40U
# B39: Id_ii_S2_P4E.2_K4.1_C4.2_[C-2T]_H4.1_A4.1_F4.1_T4.2_[G10T]_[T11C] (ssRNA)
# RNA: B1 RNA with C29U, C39U
# B40: Id_ii_S2_P4E.2_K4.1_C4.2_[C-2T]_[T-1A]_H4.1_A4.1_F4.1_T4.2_[G10A] (ssRNA)
# RNA: B1 RNA with C29A, C39A, C40U
# B41: Id_ii_S2_P4E.2_K4.1_C4.2_[T-1G]_H4.1_A4.1_F4.1_T4.2_[G10T]_[T11C] (ssRNA)
# RNA: B1 RNA with U28C, C29G, C39U
# B42: Id_ii_S2_P4E.2_K4.1_C4.2_[C-2T]_[T-1C]_H4.1_A4.1_F4.1_T4.2_[G10T]_[T11C] (ssRNA)
# RNA: B1 RNA with C39U
# B43: Id_ii_S2_P4E.2_K4.1_C4.2_[C-2A]_[T-1A]_H4.1_A4.1_F4.1_T4.2_[G10T]_[T11C] (ssRNA)
# RNA: B1 RNA with U28A, C29A, C39U
# B44: Id_ii_S2_P4E.2_K4.1_C4.2_[C-2A]_[T-1C]_H4.1_A4.1_F4.1_T4.2_[G10T]_[T11C] (ssRNA)
# RNA: B1 RNA with U28A, C39U
# B45: Id_ii_S2_P4E.2_K4.1_C4.2_[C-2T]_H4.1_A4.1_F4.1_T4.2_[G10A] (ssRNA)
# RNA: B1 RNA with C29U, C39A, C40U
# B46: Id_ii_S2_P4E.2_K4.1_C4.2_[C-2A]_[T-1C]_H4.1_A4.1_F4.1_T4.2_[G10A] (ssRNA)
# RNA: B1 RNA with U28A, C39A, C40U
# B47: Id_ii_S2_P4E.2_K4.1_C4.2_[C-2A]_[T-1G]_H4.1_A4.1_F4.1_T4.2_[G10A] (ssRNA)
# RNA: B1 RNA with U28A, C29G, C39A, C40U
# B48: Id_ii_S2_P4E.2_K4.1_C4.2_[C-2A]_[T-1G]_H4.1_A4.1_F4.1_T4.2_[G10A]_[T11A] (ssRNA)
# RNA: B1 RNA with U28A, C29G, C39A, C40A
# Biological target: T1, PUF4 RNA-binding domain
# Experiment: Mg; RNA-MaP; 20 mM Na-HEPES pH 7.4, 30 mM KOAc, 0.75 mM MgCl2, 0.1% Tween-20, 5% glycerol, 0.1 mg/mL BSA, 2 mM DTT; 25 C; 0.0125-409.6 nM protein
# Settings: tags: N-His6-TEV cleaved; C-SNAP kept, Cy3B-labelled; label: tethered on chip by stalled RNA polymerase
row,Binder,Kd [nM]
1,UCUCUUAGUAUUAUUGUCUCUU (ssRNA) [Ib_S1_P5E.1_K5.1_C5.1_H5.1_[T1A]_A5.1_F5.1_[A10G]_T5.1],> 2300
2,UCUCUUAGUAUUAUUUUCUCUU (ssRNA) [Ib_S1_P5E.1_K5.1_C5.1_H5.1_[T1A]_A5.1_F5.1_[A10T]_T5.1],> 2300
3,UCUCUUCGUAUUAUUCUCUCUU (ssRNA) [Ib_S1_P5E.1_K5.1_C5.1_H5.1_[T1C]_A5.1_F5.1_[A10C]_T5.1],> 2300
4,B1,0.565
5,B2,1.7
6,B3,0.702
7,B4,0.421
8,B5,1.95
9,B6,2.27
10,B7,0.822
11,B8,1.25
12,B9,1.03
13,B10,0.782
14,B11,1.93
15,B12,0.602
16,B13,0.557
17,B14,0.456
18,B15,1.11
19,B16,0.628
20,B17,0.296
21,B18,0.762
22,B19,0.618
23,B20,1.96
24,B21,0.396
25,B22,1.63
26,B23,0.26
27,B24,0.523

row,Binder,Kd [nM]
1,B25,0.705
2,B26,8.86
3,B27,0.678
4,B28,0.564
5,B29,2.15
6,B30,0.502
7,B31,0.195
8,B32,0.446
9,B33,0.481
10,B34,3.89
11,B35,0.939
12,B36,0.401
13,B37,0.526
14,B38,0.715
15,B39,0.364
16,B40,0.878
17,B41,0.286
18,B42,0.305
19,B43,1.1
20,B44,0.33
21,B45,0.408
22,B46,0.442
23,B47,0.973
24,B48,1.64
25,UCUCUUGGUAUUAUUGUCUCUU (ssRNA) [Ib_S1_P5E.1_K5.1_C5.1_H5.1_[T1G]_A5.1_F5.1_[A10G]_T5.1],> 2300
26,UCUCUUGGUAUUAUUCUCUCUU (ssRNA) [Ib_S1_P5E.1_K5.1_C5.1_H5.1_[T1G]_A5.1_F5.1_[A10C]_T5.1],> 2300
